In patent US20140274782A1, “AFFINITY REAGENTS AND METHODS FOR DETECTION, PURIFICATION, AND PROTEOMIC ANALYSIS OF METHYLATED PROTEINS” (The Board of Trustees of the Leland Stanford Junior …, priority 2013, published 2014):
Each block holds one molecule with its values, some of them ahead of it.

Assays:
G9a and GLP = target: T1, G9a and GLP (Homo sapiens, UniProt Q96KQ7+Q9H9B1); assay: Triple SILAC pull-down after UNC0638 treatment of 293T cells, DMSO/UNC0638 ratio of protein captured by 3×MBT; type: cell-based; set-up: cells were treated for 24 hours with UNC0638 at 2.5 μM or DMSO vehicle control; endogenous in cells; host or cells: HEK 293T; conditions: for Relative to UNC0638 UNC Heavy / Relative to UNC0638 UNC Light: SILAC ratio DMSO/UNC0638 of protein pulled down with 3xMBT; for Relative to UNC0638 UNC Heavy: UNC0638 in heavy SILAC media; for Relative to UNC0638 UNC Light: UNC0638 in light SILAC media; for Relative to UNC0638 Average: average of UNC Light and UNC Heavy experiments;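 for all read-outs here: mass spectrometry (Q-Exactive) SILAC quantitation, DMSO/UNC0638 ratio computed after subtracting 3×MBTD355N mutant pull-down background, only proteins with at least twofold 3×MBT over mutant signal considered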
T1 sequence (Q96KQ7 2-1210 limits assumed): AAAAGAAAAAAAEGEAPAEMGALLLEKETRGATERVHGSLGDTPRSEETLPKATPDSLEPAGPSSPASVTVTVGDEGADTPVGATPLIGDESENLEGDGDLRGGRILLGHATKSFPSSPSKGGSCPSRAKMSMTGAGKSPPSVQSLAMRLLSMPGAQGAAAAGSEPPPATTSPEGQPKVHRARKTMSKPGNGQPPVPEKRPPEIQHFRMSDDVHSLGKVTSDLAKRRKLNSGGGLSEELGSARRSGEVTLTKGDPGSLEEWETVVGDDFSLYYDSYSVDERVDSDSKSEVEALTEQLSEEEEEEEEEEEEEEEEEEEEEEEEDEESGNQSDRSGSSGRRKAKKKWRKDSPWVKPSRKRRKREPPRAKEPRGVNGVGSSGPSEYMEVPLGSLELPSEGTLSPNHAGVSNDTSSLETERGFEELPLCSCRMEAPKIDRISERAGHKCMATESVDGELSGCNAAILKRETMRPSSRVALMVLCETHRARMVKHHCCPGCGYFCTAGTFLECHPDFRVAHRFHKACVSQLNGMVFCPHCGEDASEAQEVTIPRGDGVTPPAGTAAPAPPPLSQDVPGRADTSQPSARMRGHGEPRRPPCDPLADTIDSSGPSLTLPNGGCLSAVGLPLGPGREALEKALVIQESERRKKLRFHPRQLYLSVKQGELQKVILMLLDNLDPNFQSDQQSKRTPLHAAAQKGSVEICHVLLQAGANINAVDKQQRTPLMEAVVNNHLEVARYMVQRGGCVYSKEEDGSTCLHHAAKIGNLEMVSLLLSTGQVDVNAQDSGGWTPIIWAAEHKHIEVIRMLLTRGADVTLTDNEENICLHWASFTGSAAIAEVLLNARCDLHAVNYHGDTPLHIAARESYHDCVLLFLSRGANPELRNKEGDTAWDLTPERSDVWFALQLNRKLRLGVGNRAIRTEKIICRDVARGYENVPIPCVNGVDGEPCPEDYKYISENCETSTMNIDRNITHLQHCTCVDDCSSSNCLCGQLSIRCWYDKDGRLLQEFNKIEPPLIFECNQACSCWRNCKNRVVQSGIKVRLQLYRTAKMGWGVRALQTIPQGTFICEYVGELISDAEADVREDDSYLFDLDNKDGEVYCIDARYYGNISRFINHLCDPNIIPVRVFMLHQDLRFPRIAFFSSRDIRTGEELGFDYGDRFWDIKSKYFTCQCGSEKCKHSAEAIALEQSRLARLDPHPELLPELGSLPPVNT
T1 sequence (Q9H9B1 2-1298 limits assumed): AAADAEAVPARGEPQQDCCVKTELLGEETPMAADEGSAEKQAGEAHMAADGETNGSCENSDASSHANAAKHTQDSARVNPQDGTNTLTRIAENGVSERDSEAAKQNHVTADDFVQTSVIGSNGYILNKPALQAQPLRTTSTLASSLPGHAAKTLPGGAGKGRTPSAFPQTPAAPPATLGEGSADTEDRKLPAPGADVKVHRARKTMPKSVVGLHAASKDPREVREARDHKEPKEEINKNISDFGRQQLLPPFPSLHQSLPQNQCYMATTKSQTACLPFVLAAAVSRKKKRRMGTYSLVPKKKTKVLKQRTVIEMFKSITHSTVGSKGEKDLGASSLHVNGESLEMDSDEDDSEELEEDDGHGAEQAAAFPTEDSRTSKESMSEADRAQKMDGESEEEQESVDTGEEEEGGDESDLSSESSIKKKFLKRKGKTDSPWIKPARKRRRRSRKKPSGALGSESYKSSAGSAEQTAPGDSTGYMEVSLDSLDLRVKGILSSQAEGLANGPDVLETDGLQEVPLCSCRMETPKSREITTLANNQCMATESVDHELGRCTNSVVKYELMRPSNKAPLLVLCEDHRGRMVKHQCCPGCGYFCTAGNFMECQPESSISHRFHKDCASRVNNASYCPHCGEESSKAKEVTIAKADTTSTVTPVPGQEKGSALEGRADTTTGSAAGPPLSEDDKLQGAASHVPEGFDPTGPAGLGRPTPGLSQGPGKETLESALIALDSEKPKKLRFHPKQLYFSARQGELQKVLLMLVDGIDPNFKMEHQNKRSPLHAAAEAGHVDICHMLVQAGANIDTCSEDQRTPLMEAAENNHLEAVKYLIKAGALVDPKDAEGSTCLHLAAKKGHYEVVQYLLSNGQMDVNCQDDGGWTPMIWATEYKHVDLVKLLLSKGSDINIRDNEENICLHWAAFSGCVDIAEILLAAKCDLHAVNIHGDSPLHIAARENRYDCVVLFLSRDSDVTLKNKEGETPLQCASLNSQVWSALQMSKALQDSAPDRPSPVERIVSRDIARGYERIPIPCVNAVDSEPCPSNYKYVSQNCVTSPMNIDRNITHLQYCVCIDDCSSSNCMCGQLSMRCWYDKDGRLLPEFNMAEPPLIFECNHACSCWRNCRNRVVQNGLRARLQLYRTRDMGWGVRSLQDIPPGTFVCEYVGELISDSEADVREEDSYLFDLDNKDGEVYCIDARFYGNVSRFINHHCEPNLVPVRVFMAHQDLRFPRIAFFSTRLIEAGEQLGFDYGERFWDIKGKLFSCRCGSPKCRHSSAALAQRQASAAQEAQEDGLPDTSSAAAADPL
Description: For UNC0638 treatments cells were treated for 24 hours with UNC0638 at 2.5 μM or DMSO vehicle control. One experiment treated cells in light media with UNC0638, the other treated cells in heavy media. Both experiments included cells in medium media treated with DMSO for negative control pull-down with 3×MBTD355N.
UNC0638 treatment experiments used a Q-Exactive mass spectrometer (ThermoFisher Scientific). A 25 cm HPLC column with 3 μm Reliasil (Orochem) was used to separate peptides over a 4 hour gradient from 0 to 75% acetonitrile. Ions were generated using a custom nanospray source flowing at 250 nL/minute. Mass spectrometry settings were 70,000 MS1 resolution, data dependent selection of up to 20 precursor ions per cycle, dynamic exclusion of 30 seconds and isolation window of 2 m/z.
For UNC0638 experiments the treated vs. untreated ratio was determined by subtracting the value from 3×MBTD355N prior to dividing values from the light and heavy channels. Only proteins showing a two-fold signal to background ratio (3×MBT/3×MBTD355N) were evaluated as potential G9a/GLP substrates.

3×MBT domain of L3MBTL1 = assay: Triple SILAC pull-down, 3xMBT/3xMBTD355N ratio (cytoplasmic, nuclear and chromatin fractions of 293T cells); type: binding, human; conditions: SILAC ratio, pull-down 3xMBT vs 3xMBTD355N; for 3xMBT/D355N UNC Heavy: experiment with UNC0638 in heavy SILAC media; for 3xMBT/D355N UNC Light: experiment with UNC0638 in light SILAC media;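 for all read-outs here: proteins quantified with MaxQuant, requiring at least two unique peptides and quantification in both label directions, normalized to the mean of proteins from a digested loading control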

B1: SF3B3 (protein, UniProt Q15393 1-1217, looked up)
Splicing factor 3B subunit 3: MFLYNLTLQRATGISFAIHGNFSGTKQQEIVVSRGKILELLRPDPNTGKVHTLLTVEVFGVIRSLMAFRLTGGTKDYIVVGSDSGRIVILEYQPSKNMFEKIHQETFGKSGCRRIVPGQFLAVDPKGRAVMISAIEKQKLVYILNRDAAARLTISSPLEAHKANTLVYHVVGVDVGFENPMFACLEMDYEEADNDPTGEAAANTQQTLTFYELDLGLNHVVRKYSEPLEEHGNFLITVPGGSDGPSGVLICSENYITYKNFGDQPDIRCPIPRRRNDLDDPERGMIFVCSATHKTKSMFFFLAQTEQGDIFKITLETDEDMVTEIRLKYFDTVPVAAAMCVLKTGFLFVASEFGNHYLYQIAHLGDDDEEPEFSSAMPLEEGDTFFFQPRPLKNLVLVDELDSLSPILFCQIADLANEDTPQLYVACGRGPRSSLRVLRHGLEVSEMAVSELPGNPNAVWTVRRHIEDEFDAYIIVSFVNATLVLSIGETVEEVTDSGFLGTTPTLSCSLLGDDALVQVYPDGIRHIRADKRVNEWKTPGKKTIVKCAVNQRQVVIALTGGELVYFEMDPSGQLNEYTERKEMSADVVCMSLANVPPGEQRSRFLAVGLVDNTVRIISLDPSDCLQPLSMQALPAQPESLCIVEMGGTEKQDELGERGSIGFLYLNIGLQNGVLLRTVLDPVTGDLSDTRTRYLGSRPVKLFRVRMQGQEAVLAMSSRSWLSYSYQSRFHLTPLSYETLEFASGFASEQCPEGIVAISTNTLRILALEKLGAVFNQVAFPLQYTPRKFVIHPESNNLIIIETDHNAYTEATKAQRKQQMAEEMVEAAGEDERELAAEMAAAFLNENLPESIFGAPKAGNGQWASVIRVMNPIQGNTLDLVQLEQNEAAFSVAVCRFSNTGEDWYVLVGVAKDLILNPRSVAGGFVYTYKLVNNGEKLEFLHKTPVEEVPAAIAPFQGRVLIGVGKLLRVYDLGKKKLLRKCENKHIANYISGIQTIGHRVIVSDVQESFIWVRYKRNENQLIIFADDTYPRWVTTASLLDYDTVAGADKFGNICVVRLPPNTNDEVDEDPTGNKALWDRGLLNGASQKAEVIMNYHVGETVLSLQKTTLIPGGSESLVYTTLSGGIGILVPFTSHEDHDFFQHVEMHLRSEHPPLCGRDHLSFRSYYFPVKNVIDGDLCEQFNSMEPNKQKNVSEELDRTPPEVSKKLEDIRTRYAF
- Relative to UNC0638 UNC Heavy (G9a and GLP): 0.06 log base 2
- Relative to UNC0638 UNC Light (G9a and GLP): 0.31 log base 2
- Relative to UNC0638 Average (G9a and GLP): 0.18 log base 2
- 3xMBT/D355N UNC Heavy (3×MBT domain of L3MBTL1): 2.48 log base 2
- 3xMBT/D355N UNC Light (3×MBT domain of L3MBTL1): 2.08 log base 2

B4: MCM3 (protein, UniProt P25205 2-808, looked up)
DNA replication licensing …: AGTVVLDDVELREAQRDYLDFLDDEEDQGIYQSKVRELISDNQYRLIVNVNDLRRKNEKRANRLLNNAFEELVAFQRALKDFVASIDATYAKQYEEFYVGLEGSFGSKHVSPRTLTSCFLSCVVCVEGIVTKCSLVRPKVVRSVHYCPATKKTIERRYSDLTTLVAFPSSSVYPTKDEENNPLETEYGLSVYKDHQTITIQEMPEKAPAGQLPRSVDVILDDDLVDKAKPGDRVQVVGTYRCLPGKKGGYTSGTFRTVLIACNVKQMSKDAQPSFSAEDIAKIKKFSKTRSKDIFDQLAKSLAPSIHGHDYVKKAILCLLLGGVERDLENGSHIRGDINILLIGDPSVAKSQLLRYVLCTAPRAIPTTGRGSSGVGLTAAVTTDQETGERRLEAGAMVLADRGVVCIDEFDKMSDMDRTAIHEVMEQGRVTIAKAGIHARLNARCSVLAAANPVYGRYDQYKTPMENIGLQDSLLSRFDLLFIMLDQMDPEQDREISDHVLRMHRYRAPGEQDGDAMPLGSAVDILATDDPNFSQEDQQDTQIYEKHDNLLHGTKKKKEKMVSAAFMKKYIHVAKIIKPVLTQESATYIAEEYSRLRSQDSMSSDTARTSPVTARTLETLIRLATAHAKARMSKTVDLQDAEEAVELVQYAYFKKVLEKEKKRKKRSEDESETEDEEEKSQEDQEQKRKRRKTRQPDAKDGDSYDPYDFSDTEEEMPQVHTPKTADSQETKESQKVELSESRLKAFKVALLDVFREAHAQSIGMNRLTESINRDSEEPFSSVEIQAALSKMQDDNQVMVSEGIIFLI
- Relative to UNC0638 UNC Heavy (G9a and GLP): 0.28 log base 2
- Relative to UNC0638 UNC Light (G9a and GLP): 0.09 log base 2
- Relative to UNC0638 Average (G9a and GLP): 0.18 log base 2
- 3xMBT/D355N UNC Heavy (3×MBT domain of L3MBTL1): 2.59 log base 2
- 3xMBT/D355N UNC Light (3×MBT domain of L3MBTL1): 2.49 log base 2

Now from value to molecule, other results behind:

- Relative to UNC0638 UNC Heavy (G9a and GLP): 2.48 log base 2
- Relative to UNC0638 UNC Light (G9a and GLP): −0.46 log base 2
- Relative to UNC0638 Average (G9a and GLP): 1.01 log base 2
B2: C20orf43 (protein, UniProt Q9BY42 1-306, looked up)
Replication termination …: MGCDGGTIPKRHELVKGPKKVEKVDKDAELVAQWNYCTLSQEILRRPIVACELGRLYNKDAVIEFLLDKSAEKALGKAASHIKSIKNVTELKLSDNPAWEGDKGNTKGDKHDDLQRARFICPVVGLEMNGRHRFCFLRCCGCVFSERALKEIKAEVCHTCGAAFQEDDVIMLNGTKEDVDVLKTRMEERRLRAKLEKKTKKPKAAESVSKPDVSEEAPGPSKVKTGKPEEASLDSREKKTNLAPKSTAMNESSSGKAGKPPCGATKRSIADSEESEAYKSLFTTHSSAKRSKEESAHWVTHTSYCF
- 3xMBT/D355N UNC Heavy (3×MBT domain of L3MBTL1): 1.26 log base 2
- 3xMBT/D355N UNC Light (3×MBT domain of L3MBTL1): 0.71 log base 2

- Relative to UNC0638 UNC Heavy (G9a and GLP): 0.20 log base 2
- Relative to UNC0638 UNC Light (G9a and GLP): 0.16 log base 2
- Relative to UNC0638 Average (G9a and GLP): 0.18 log base 2
B3: HNRNPA3 (protein, UniProt P51991 1-378, looked up)
Heterogeneous nuclear …: MEVKPPPGRPQPDSGRRRRRRGEEGHDPKEPEQLRKLFIGGLSFETTDDSLREHFEKWGTLTDCVVMRDPQTKRSRGFGFVTYSCVEEVDAAMCARPHKVDGRVVEPKRAVSREDSVKPGAHLTVKKIFVGGIKEDTEEYNLRDYFEKYGKIETIEVMEDRQSGKKRGFAFVTFDDHDTVDKIVVQKYHTINGHNCEVKKALSKQEMQSAGSQRGRGGGSGNFMGRGGNFGGGGGNFGRGGNFGGRGGYGGGGGGSRGSYGGGDGGYNGFGGDGGNYGGGPGYSSRGGYGGGGPGYGNQGGGYGGGGGYDGYNEGGNFGGGNYGGGGNYNDFGNYSGQQQSNYGPMKGGSFGGRSSGSPYGGGYGSGGGSGGYGSRRF
- 3xMBT/D355N UNC Heavy (3×MBT domain of L3MBTL1): 2.96 log base 2
- 3xMBT/D355N UNC Light (3×MBT domain of L3MBTL1): 3.79 log base 2
